Article PMC4746669, “Attenuation of ligand-induced activation of angiotensin II type 1 receptor signaling by the type 2 receptor via protein kinase C” (Scientific Reports, 2016)

B1: FLAG-AT2R-CFP (angiotensin II type 2 receptor) [human] / HA-AT1R-YFP (angiotensin II type 1 receptor) [human] (parent)
chain 1: MKGNSTLATTSKNITSGLHFGLVNISGNNESTLNCSQKPSDKHLDAIPILYYIIFVIGFLVNIVVVTLFCCQKGPKKVSSIYIFNLAVADLLLLATLPLWATYYSYRYDWLFGPVMCKVFGSFLTLNMFASIFFITCMSVDRYQSVIYPFLSQRRNPWQASYIVPLVWCMACLSSLPTFYFRDVRTIEYLGVNACIMAFPPEKYAQWSAGIALMKNILGFIIPLIFIATCYFGIRKHLLKTNSYGKNRITRDQVLKMAAAVVLAFIICWLPFHVLTFLDALAWMGVINSCEVIAVIDLALPFAILLGFTNSCVNPFLYCFVGNRFQQKLRSVFRVPITWLQGKRESMSCRKSSSLREMETFVS
chain 2: MILNSSTEDGIKRIQDDCPKAGRHNYIFVMIPTLYSIIFVVGIFGNSLVVIVIYFYMKLKTVASVFLLNLALADLCFLLTLPLWAVYTAMEYRWPFGNYLCKIASASVSFNLYASVFLLTCLSIDRYLAIVHPMKSRLRRTMLVAKVTCIIIWLLAGLASLPAIIHRNVFFIENTNITVCAFHYESQNSTLPIGLGLTKNILGFLFPFLIILTSYTLIWKALKKAYEIQKNKPRNDDIFKIIMAIVLFFFFSWIPHQIFTFLDVLIQLGIIRDCRIADIVDTAMPITICIAYFNNCLNPLFYGFLGKKFKRYFLQLLKYIPPKAKSHSNLSTKMSTLSYRPSDNVSSSTKKPAPCFEVE

Variants of: B1
Experiment: FRET fluorescence microscopy in live HeLa cells (corrected FRET, FRETC)
Conditions: with HA-AT1R-YFP (angiotensin II type 1 receptor) [human]; value read at the end of the time course (about 50 min after AII stimulation at time 0); HeLa cells 24 h after transfection; n = 4; parent: 1.3; read off a …

Row | Variant | response
1 | chain 1 MKGNSTLATTSKNITSGLHFGLVNISGNNESTLNCSQKPSDKHLDAIPILYYIIFVIGFLVNIVVVTLFCCQKGPKKVSSIYIFNLAVADLLLLATLPLWATYYSYRYDWLFGPVMCKVFGSFLTLNMFASIFFITCMSVDRYQSVIYPFLSQRRNPWQASYIVPLVWCMACLSSLPTFYFRDVRTIEYLGVNACIMAFPPEKYAQWSAGIALMKNILGFIIPLIFIATCYFGIRKHLLKTNSYGKNRITRDQVLKMAAAVVLAFIICWLPFHVLTFLDALAWMGVINSCEVIAVIDLALPFAILLGFTNSCVNPFLYCFVGNRFQQKLRSVFRVPITWLQGKRESMSCRKAAALREMETFVS [chain 1 S352A S353A S354A] | 0.97 -fold
